Drawing on a protein production outcome set (Wang et al. 2014), this text covers protein production for 18 sequences.

The nature of this series: label from the status in PepcDB records.

For “MKEVIHSTLAPKAIGPYSQAIATNDLVFVSGQLGIDVSTGEFKGADIHSQTTQSMENIKAILKEAGLGMDSVVKTTILLKSLDDFAVVNGIYGSYFTEPYPARATFQVAKLPKDALVEIEAIAIK”, the protein production result was “failed”.

As to “MKFAIITDVHGNFDALQTVLDDIDNREDIDKIYNLGDNIGIGHETNKVLDTIFDRDDMEIIAGNHDEAVMSLVNNTPYPEDLKDKFYEHHQWIESHMDEDYYDQLNLLPRYIEKTICGKKLLFIHYEIENQKLETGIEGQPFSPITENSKENIIELFKDKDADLIAFGHNHQMHLYDDNKTIYFNPGAVGLNNGANAVYGIVTINDNEFSIERIKLPYDNEEYLQGFDEKQVPAKQLIFEHFL”, the protein production result is recorded as “failed”.

For “MKFCSQCGGEVILRIPEGDTLPRYICPKCHTIHYQNPKVIVGCIPEWENKVLLCKRAIAPYRGKWTLPAGFMENNETLVQGAARETLEEANARVEIRELYAVYSLPHISQVYMLFRAKLLDLDFFPGIESLEVRLFGEQEIPWNDIAFRVIHDPLKRYMEERHHGQPAFHLGIINKPQAGSNSNE”, the protein production result was “not failed”.

Take “MKFFSLADEAEFKSIIISKNKAVDVIGSKLGGQVVSFSDEWFASAENLIQPTAPIRDPTRFVHSGAWYDGWETRRHNEMEYDWVIIKMGVAAAHIIGGEIDTAFFNGNHAPFVSIEALYDEGEEGNIVEDDSRWVEIVEKFECGPSQRHLFVRGNGLTKERFTHIKLKMYPDGGIARFRLYGRVVPPELKTKDHIIDLAYVCNGAVALKYSDQHFGSVDNLLLPGRGHDMSDGWETKRSRQPGHTDWAVIQLGRESSFIEKIIVDTAHFRGNFPQFITVEGCLKESESSENTGEGTWVELVGKSKTGPDKEHVYEIRKSIRVSHVKLTIIPDGGVKRIRVWGY”: the protein production result was “not failed”.

As for “MKFGEHLSKSLIRQYSYYYISYDDLKTELEDNLSKNNGQWTQELETDFLESLEIELDKVYTFCKVKHSEVFRRVKEVQEQVQHTVRLLDSNNPPTQLDFEILEEELSDIIADVHDLAKFSRLNYTGFQKIIKKHDKKTGFILKPVFQVRLDSKPFFKENYDELVVKISQLYDIARTSGRPIKGDSSAGGKQQNFVRQTTKYWVHPDNITELKLIILKHLPVLVFNTNKEFEREDSAITSIYFDNENLDLYYGRLRKDEGAEAHRLRWYGGMSTDTIFVERKTHREDWTGEKSVKARFALKERHVNDFLKGKYTVDQVFAKMRKEGKKPMNEIENLEALASEIQYVMLKKKLRPVVRSFYNRTAFQLPGDARVRISLDTELTMVREDNFDGVDRTHKNWRRTDIGVDWPFKQLDDKDICRFPYAVLEVKLQTQLGQEPPEWVRELVGSHLVEPVPKFSKFIHGVATLLNDKVDSIPFWLPQMDVDIRKPPLPTNIEITRPGRSDNEDNDFDEDDEDDAALVAAMTNAPGNSLDIEESVGYGATSAPTSNTNHVVESANAAYYQRKIRNAENPISKKYYEIVAFFDHYFNGDQISKIPKGTTFDTQIRAPPGKTICVPVRVEPKVYFATERTYLSWLSISILLGGVSTTLLTYGSPTAMIGSIGFFITSLAVLIRTVMVYAKRVVNIRLKRAVDYEDKIGPGMVSVFLILSILFSFFCNLVAK”, the protein production entry is reported as “failed”.

Take “MKFLKYFTFELRLRYRNPSQILFVFIFPLFLMFAFSSSFGKSIPHYIENNIASILLYSVLSASLTSLSVQIADHQSGKIYQLFVQRGIKKLFYIIAQIVSFMIIIFCSTLVILVVAHYAYDYEFPKLSLLILFYLKLYLYSIPFCLLAMIIGLLAKNTATASAIAMPLMFLSFFFSGMMIPLAQLSGGIRKIADNFFLTQLLSDLNHTLTSNYTVVPNWSRISLSVGLICLLALLVYRRKA”: the protein production entry is on record as “failed”.

Consider “MKFLRLLKHPASTAPGRAFQLYPWQERIVRAIYGPRHPDGSRIVKTVFLLVPRGNRKTSLAAALALLHTLGPERVPAGQVIFAACDREQAGIGFREAANIIRADKRLVAATRIYDAHNSAKKIVFRAEDVTLSAISSDGGAQHGRTPAFTLIDELHAWKGRDLWEALKSGTAKVADSLTVIATTAGRGADTVAAEQYAYALAVARGEIVNPAFLPILFAPEPGDDWTDEATWHKVNPGLRHGFPSLEGLRTLAKEAEGRPSDAYAFRQFNLNEWMANSRDPLFDFDTYDARRFAEDLDELEGLPCWIGVDLSISGDLSAVVAAWKHPDGQISVKPWFWVPGDDLKVRADRDGVPYERWRDEGHLIATPGAIIDQSAVADQIRELCARFDAQEVAFDPHLARPMMQSLYDEGLPVVEMRQAPLTMGVAAGDLERVVNGRLIRHDGHPVLRNHLQNVCASRSESGLIRMHKVQRTSRIDGAVAAAMAVSRAVAADSRKSAYSDPEAEGLFVF”, for which the protein production result is given as “failed”.

For the sequence “MKFNEFLNNLSNYEPGKDIEVIAKEYGVKEVIKLASNENPFGTPPKAIECLRQNANKAHLYPDDSMIELKSTLAQKYKVQNENIIIGAGSDQVIEFAIHSKLNSKNAFLQAGVTFAMYEIYAKQCGAKCYKTQSITHNLDEFKKLYETHKDEIKLIFLCLPNNPLGECLDASEATEFIKGVNEDCLVVIDAAYNEFASFKDSKKHLEPCELIKEFDNVLYLGTFSKLYGLGGLRIGYGIANANIISAFYKLRAPFNVSNLALKAAVAAMDDDEFTEKTLENNFSQMELYKEFAKKHNIKIIDSYTNFITYFFDEKNSTDLSEKLLKKGIIIRNLKSYGLNAIRITIGTSYENEKFFTEFDKILR”, the protein production entry is listed as “not failed”.

Take “MKFQPLGERVLVERLEEENKTSSGIIIPDNAKEKPLMGVVKAVSHKISEGCKCVKEGDVIAFGKYKGAEIVLDGTEYMVLELEDILGIVGSGSCCHTGNHDHKHAKEHEACCHDHKKH”: the protein production result is reported as “failed”.

As to “MKFRIDTFTLLLLGAIVLASFLPVTGQAAEALGTAGTIAVALLFFFHGAALSRQQIIDGATHWRLHILITALTFVFFPLAVLPVNELNTIAPEWMPKDLGLGFLYLGVLPSAVSSSIAYTAMARGNVPAAICSAAASNVFGMMLTPFLLLLLVSTSGAGEFSVAEALKDIVLQLLLPFAVGHALRPWLGGYLSRNESLMARYDQCVIWIIVYSAFSHSVVSGLWQNLPVQAIVLAILICFGLLGLFMLIARLMVRKLGFSLEDEAAVVFCGSKKSLASGLPMAKVLFSGHPGFGMIVLPIMCYNQIQVIVGAILAQKYREKIQQAKSAPAHASENGCQNR”, the protein production entry was “failed”.

Turning to “MKFSRFRDSKLFFWTIEILAVVAILFVLLQMKYIFSPIGIIVSTLFMPILVAGFLFYLFNPLVLFLEKRKVPRLLSVIVIFIAFITLVVLAVMQLGPTLADQVAELAKAIPGYWQDFEKWLQGLSNNSALKDIDMKQELEKLNISLPKIMSVVVDGVASSFGAIVSFVSSFVMILVTVPFIVFYMFKDGHKFVESSGKFFPAGIRSEAKQIIKEMNKTISTYISSQAIDCMFVGLFTFIGYLIIGQPYALLFGFIAGATNIIPYLGPFIGAAPAVIVALFTSPVQALLVIVVVTIVQQIDSNLLSPYIMGKSLSIHPLTIIIILIVAGNLAGIFGMILGVPLYAVVKTIIVNVNRLIKLRRGQLAIDNNLPNPDTPKK”, the protein production entry is listed as “not failed”.

Regarding “MKFVKIALIIAVIALVLFAAKQTGVLEIITDIKSLQEWIAGFGAWGYIVFVAAFVFACVFLLPGSAFTIVAGIVFGPIKGGVLALFSATLGAVVAFIVARFLLRNTIMKKFGDNPIFKKIDDGVAKNGTSFLILTRLVPVFPFSLQNYAYGLTGLNLSTYALVSLITMAPGAFIFAYMAGDIATNGVSAMLLVKFAVAGLILFGMSLIPKYIAKKKGINMEELAK”, the protein production entry is recorded as “not failed”.

“MKFVSIEKDEILIGNMAKLYCKVFEKTNFNEMIERMNRHIEYTGFKGIVAINDENEVVGFTYGYRSMEGQYYNQLMREALHLEQVDEWLQDCFEFVELAVHPQYQNEGLGTKLHNELLEGIPNRTSVLTTQINNEKARSLYERLDWVNVLEPFHPSKNDVPYVIMGKALKTKVN”: the protein production entry is “failed”.

As to “MKFYIDDLPVLFPYPKIYPEQYNYMCDIKKTLDVGGNSILEMPSGTGKTVSLLSLTIAYQMHYPEHRKIIYCSRTMSEIEKALVELENLMDYRTKELGYQEDFRGLGLTSRKNLCLHPEVSKERKGTVVDEKCRRMTNGQAKRKLEEDPEANVELCEYHENLYNIEVEDYLPKGVFSFEKLLKYCEEKTLCPYFIVRRMISLCNIIIYSYHYLLDPKIAERVSNEVSKDSIVIFDEAHNIDNVCIESLSLDLTTDALRRATRGANALDERISEVRKVDSQKLQDEYEKLVQGLHSADILTDQEEPFVETPVLPQDLLTEAIPGNIRRAEHFVSFLKRLIEYLKTRMKVLHVISETPKSFLQHLKQLTFIERKPLRFCSERLSLLVRTLEVTEVEDFTALKDIATFATLISTYEEGFLLIIEPYEIENAAVPNPIMRFTCLDASIAIKPVFERFSSVIITSGTISPLDMYPRMLNFKTVLQKSYAMTLAKKSFLPMIITKGSDQVAISSRFEIRNDPSIVRNYGSMLVEFAKITPDGMVVFFPSYLYMESIVSMWQTMGILDEVWKHKLILVETPDAQETSLALETYRKACSNGRGAILLSVARGKVSEGIDFDHQYGRTVLMIGIPFQYTESRILKARLEFMRENYRIRENDFLSFDAMRHAAQCLGRVLRGKDDYGVMVLADRRFSRKRSQLPKWIAQGLSDADLNLSTDMAISNTKQFLRTMAQPTDPKDQEGVSVWSYEDLIKHQNSRKDQGGFIENENKEGEQDEDEDEDIEMQ”, the protein production result is “failed”.

For “MKGDRLADIRTIGVVVLYRPDSSVLDAIASYRHQVHELIVVDNSEEQDHKLHSRLRDRFGATIVGEGRNLGIAAALNRAAREALAEGFDLLLTMDQDSRAEPGMVEQMLACLGSDWRERVGLIAPFHLTGARPAPGGTTPCSDVMTPMTSGCLVNLAAFREVGPFRDDFFIDFVDNEYCLRLRKKGFQVVRANRALLHHRVGDLRRYGPFVATHHSPLRRYYKTRNRCAVFAEYLRDFPVHCLFDLVRLGKEVASILIFEREKTAKLRMMWRGFLDFRRGRFGPYGGLEHHHHHH”, the protein production result is given as “failed”.

On to “MKGEESVQLQSIEKRVSSGHSPSCAEILLSTIQEMNREENLLKALDLFTQRSLVLFDCDVAAIYLLEQGKYKPFSVSFRDDKDRETLMLREFPQDFREIGTEVVETDEEWVLALSHFGKTLGAYVLKGRRSQCRDEGSAVFVKQVISIISSFIFERILKIDSLSREQALTLLLRGTEILVRADSEEQLLSEAGEMAMEILFLPGGFFLLEGAGGTWEIRSPFGRLKQEMEWDWRTWVRQYISKEECCLRSAKVHFFDIENNPFKWERVWIHPLQTHSGVVGELWLMNAGKYLNDQEQEILTAFIRVVGVALETIRQREELARLANTDRLTGILNRQGFEQRVREEIASTLRRDSRFLFLVLDLDRFKQLNDTLGHPMGDRALKEIAQNLRCAVREQDIVARTGGDEFTVVLTDIALNEESLTVIERMRKSMHLEEYNLGVSIGVAEFPTEGRTYDELYRLADQRLYRGKNSGKGNIIAD”, for which the protein production result is “failed”.

For the sequence “MKGIINMATFKQYKTKSGAFWEAFTSVGKDTNGKAKRMHKRGFKTKKEAQLWTSNVQTDFTKNGFIANDNITFAELYTKWFNEDYKEQVKESTYMITDDIFRLHILPELGSQRVKRITVAQCQSIVHKWLNQGFKTYRRFRTYAISVFDFGVRMELTTRNPMAKTSIPKQKTKPQAPHVDFYEKSELLHFLDCASKHENPQAFMFFRLLAFTGLRRGEALALQWSDINFETNELTVNKTQAVGKRWRTIIQTPKTNTSYRTIVLDPDTAQWLHKWKMTQARQCFELGFNANDPSQLVFTNQQNKLMSPSTVNYFNWSICKKYGLRHIKIHAFRHTFCTLAFEAHAGINEVSKTLGHADLKITEQIYLHVTKKQKNETASKLARYMSEL”, the protein production entry is recorded as “failed”.

With “MKGLVELGEKAPDFTLPNQDFEPVNLYEVLKRGRPAVLIFFPAAFSPVCTKELCTFRDKMAQLEKANAEVLAISVDSPWCLKKFKDENRLAFNLLSDYNREVIKLYNVYHEDLKGLKMVAKRAVFIVKPDGTVAYKWVTDNPLNEPDYDEVVREANKIAGELVA”, the protein production entry is “not failed”.
